Assay results: patent publication US5310882A, “Somatotropins with alterations in the α-helix 3 region” (priority 1990, dated 1994)
Residue numbers refer to the chain shown, from its start. Numbers in names are those of the source.

B1: L115A + A34: rpST with leucine 115 changed to alanine, A34 background (protein, UniProt P01248 27-216, looked up, variant L115A)
Somatotropin: FPAMPLSSLFANAVLRAQHLHQLAADTYKEFERAYIPEGQRYSIQNAQAAFCFSETIPAPTGKDEAQQRSDVELLRFSLLLIQSWLGPVQFLSRVFTNSLVFGTSDRVYEKLKDAEEGIQALMRELEDGSPRAGQILKQTYDKFDTNLRSDDALLKNYGLLSCFKKDLHKAETYLRVMKCRRFVESSCAF
modifications: A34 background
notes: rpST with leucine 115 changed to alanine, A34 background
B2: L118A + A34: rpST with leucine 118 changed to alanine, A34 background (protein, UniProt P01248 27-216, looked up, variant L118A)
Somatotropin: B1 Somatotropin with L92A, A115L
modifications: A34 background
notes: rpST with leucine 118 changed to alanine, A34 background

Tests used:
[1] = Solution stability profile of rpST mutant proteins (solubility in vitro at 43° C.); type: physicochemical; details: pH 7.4
Procedure: The procedure described to determine stability profiles is as follows. […] This is filtered through a millipore sterile Millex-0.22 μm filter unit and 0.1 ml aliquots placed into tubes. These are placed in a 43° C. oven and removed at the required intervals. The contents are then diluted with phosphate buffered saline. The supernatant is assayed for monomer and dimer content by HPLC. A mass balance is done. Any precipitated material is recorded. Results are compared with the initial concentrations and a stability profile documented.

[2] = tested on: somatotropin receptor from purified liver membranes; test: Liver radio-receptor assay (RRA), competition with 125I-rpST; details: competition with 125I-rpST for binding; percent rpST binding
[3] = tested on: hypophysectomized (hypox) rat; test: Hypox rat test for growth enhancement; type: in vivo; details: growth over a period such as 10 days; relative to rpST positive control
Procedure: The efficacy of the recombinant animal somatotropin derivatives of the present invention for altering the growth rate of animals is determined utilizing the hypophysectomized (hypox) rat assay. […] The response measured is growth over a period of time such as 10 days and is presented in Table IV as percent of the biological activity of the rpST positive control, which is included in every trial.

Molecule | % Soluble [1] [%] | RRA [2] | Hypox rat [3]
B1 | 0 | 163% of the activity observ | 88.6% of the activity of the
B2 | 10 | 49.5% of the activity observ | 64% of the activity of the
